Reference: patent publication US20170355757A1 (Regeneron, published 2017)
Residue numbers refer to the chain shown, from its start. Names may count otherwise.

T1: monkey C5-mmh (monkey, UniProt P01031 19-1676 (human entry), limits assumed)
T1 construct: Recombinant monkey C5 with a C-terminal myc-myc-hexahistidine tag
T1 chain: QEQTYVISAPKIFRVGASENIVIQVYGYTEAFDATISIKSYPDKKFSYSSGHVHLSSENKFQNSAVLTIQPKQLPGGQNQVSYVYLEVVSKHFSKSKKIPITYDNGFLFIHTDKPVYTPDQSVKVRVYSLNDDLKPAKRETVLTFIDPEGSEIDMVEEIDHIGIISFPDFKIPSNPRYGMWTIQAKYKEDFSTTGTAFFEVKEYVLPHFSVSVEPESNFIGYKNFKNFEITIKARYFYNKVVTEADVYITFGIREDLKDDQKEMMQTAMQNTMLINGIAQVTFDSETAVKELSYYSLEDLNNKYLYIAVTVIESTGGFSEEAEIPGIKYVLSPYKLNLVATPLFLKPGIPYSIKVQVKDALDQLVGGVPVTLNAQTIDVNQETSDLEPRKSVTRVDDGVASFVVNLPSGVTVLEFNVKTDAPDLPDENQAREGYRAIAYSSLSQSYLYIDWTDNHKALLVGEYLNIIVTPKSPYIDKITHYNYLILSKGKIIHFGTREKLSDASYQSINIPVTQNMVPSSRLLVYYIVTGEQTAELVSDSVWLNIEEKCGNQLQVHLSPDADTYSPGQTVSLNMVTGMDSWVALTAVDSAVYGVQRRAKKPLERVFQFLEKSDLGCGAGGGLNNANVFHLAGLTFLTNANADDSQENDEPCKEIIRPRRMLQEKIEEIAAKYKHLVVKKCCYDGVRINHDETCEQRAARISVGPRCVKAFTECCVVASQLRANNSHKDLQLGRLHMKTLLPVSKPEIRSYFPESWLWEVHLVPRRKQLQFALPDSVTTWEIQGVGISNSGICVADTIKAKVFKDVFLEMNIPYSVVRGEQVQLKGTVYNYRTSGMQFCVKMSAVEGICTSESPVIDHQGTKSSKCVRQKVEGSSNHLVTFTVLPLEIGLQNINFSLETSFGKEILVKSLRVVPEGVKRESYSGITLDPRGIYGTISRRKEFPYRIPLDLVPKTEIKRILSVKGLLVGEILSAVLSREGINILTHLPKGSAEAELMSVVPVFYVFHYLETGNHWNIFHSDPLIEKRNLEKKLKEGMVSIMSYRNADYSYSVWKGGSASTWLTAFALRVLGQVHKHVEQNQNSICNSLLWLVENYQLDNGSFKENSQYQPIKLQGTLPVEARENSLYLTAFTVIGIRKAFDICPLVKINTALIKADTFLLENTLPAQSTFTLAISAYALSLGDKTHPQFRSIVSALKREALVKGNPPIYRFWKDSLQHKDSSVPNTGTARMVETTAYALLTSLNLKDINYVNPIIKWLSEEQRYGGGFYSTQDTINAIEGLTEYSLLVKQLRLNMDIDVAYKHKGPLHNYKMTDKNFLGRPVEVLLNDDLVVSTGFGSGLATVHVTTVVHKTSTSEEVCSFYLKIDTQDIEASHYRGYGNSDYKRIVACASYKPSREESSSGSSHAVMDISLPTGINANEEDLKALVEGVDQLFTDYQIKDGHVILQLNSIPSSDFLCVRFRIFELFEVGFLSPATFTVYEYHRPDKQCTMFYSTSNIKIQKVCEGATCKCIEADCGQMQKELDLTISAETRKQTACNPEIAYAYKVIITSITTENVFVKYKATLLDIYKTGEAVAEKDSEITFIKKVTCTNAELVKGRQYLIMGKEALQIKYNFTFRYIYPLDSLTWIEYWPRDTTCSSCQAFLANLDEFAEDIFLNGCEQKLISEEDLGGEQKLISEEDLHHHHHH

B1: H4H12183P2 (antibody, human IgG4, V domains shown)
VH: QVQLQESGPALVKPSQTLSLTCTVSGGSIIRGSTYWSWVRQFPGKGLEWIGYSYYSGTAYYNPSLESRATISVDTSKNQFSLNLKSVTAADTAVYYCTREIGVAGLFDIWGQGTLVTVSS
VL: not shown
notes: Human IgG4 Fc with S108P hinge mutation (H4H)
B2: H4H12169P (antibody, human IgG4, V domains shown)
VH: EVQLVESGGGLAQPGGSLRLSCAASGFTFRSYAMSWVRQAPGKGPEWVSGIGGNGVTTYYADSVKGRFTISRDNSKNTLFLQMNSLRAEDTAVYYCVQGGLGGYFTGYWGQGTLVTVSS
VL: DIQMTQSPSSLSASVGDRVTITCRASQSISTYLNWYQQNPGKAPKLLIFDASSLQSGVPSRFSGSGSGTDFTLTIRGLQPEDFATYYCQQSYSAPLTFGGGTKVEIK
notes: as for B1
B3: H4H12176P2 (antibody, human IgG4, V domains shown)
VH: EVQLVESGGGLVQPGGSLRLSCAASGFHSNRYWMDWVRQAPGKGLEWVANIKQDGSEENYVDSVKGRFTISRDNAKNSLYLQMNSLRAEDTAVYYCARDRSTSWVPYWFFDLWGRGTLVTVSS
VL: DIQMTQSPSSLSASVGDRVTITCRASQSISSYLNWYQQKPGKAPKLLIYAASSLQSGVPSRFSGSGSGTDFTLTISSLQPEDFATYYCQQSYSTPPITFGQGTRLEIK
notes: as for B1
B4: H4H12166P (antibody, V domains shown)
VH: QVQLQESGPGLVKPSETLSLTCTVSGDSVSSSYWTWIRQPPGKGLEWIGYIYYSGSSNYNPSLKSRATISVDTSKNQFSLKLSSVTAADTAVYYCAREGNVDTTMIFDYWGQGTLVTVSS
VL: AIQMTQSPSSLSASVGDRVTITCRASQGIRNDLGWYQQKPGKAPKLLIYAASSLQSGVPSRFAGRGSGTDFTLTISSLQPEDFATYYCLQDFNYPWTFGQGTKVEIK
B5: H4H12166P5 (antibody, human IgG4, V domains shown)
VH: B4 VH with F107H
VL: B4 VL
notes: Histidine-mutated CDR variant of H4H12166P; human IgG4 Fc with S108P
B6: H4H12166P6 (antibody, human IgG4, V domains shown)
VH: B4 VH with T103H
VL: B4 VL
notes: as for B5
B7: H4H12166P2 (antibody, human IgG4, V domains shown)
VH: B4 VH
VL: B4 VL with L89H
notes: as for B5
B8: H4H12166P4 (antibody, human IgG4, V domains shown)
VH: B4 VH
VL: B4 VL with T97H
notes: as for B5

Tests used:
monkey C5-mmh = biological target: T1, monkey C5-mmh; test: SPR, mAb captured via anti-hFc, 37C
Description: (§1) Equilibrium dissociation constants (KD values) for C5 binding to purified anti-C5 antibodies were determined using a real-time surface plasmon resonance biosensor assay on a Biacore T200 instrument. The Biacore sensor surface was derivatized by amine coupling with a monoclonal mouse anti-human Fc antibody (GE Healthcare, # BR-1008-39) to capture anti-C5 antibodies expressed with human Fc constant regions. Biacore binding studies were conducted in HBST running buffer (0.01M HEPES pH 7.4, 0.15M NaCl, 3 mM EDTA, 0.05% v/v Surfactant P20).
(§2) Human C5 was obtained from a commercial source (EMD). Other C5 reagents were expressed with a C-terminal myc-myc-hexahistidine tag (subsequently referred to as C5-mmh). […] Association of all the C5 reagents to each of the captured monoclonal antibodies was monitored for 3 minutes and their dissociation in HBST running buffer was monitored for 8 minutes. All the binding kinetics experiments were performed at either 25° C. or 37° C. Kinetic association (kₐ) and dissociation (kd) rate constants were determined by fitting the real-time sensorgrams to a 1:1 binding model using Scrubber 2.0c curve fitting software. Binding dissociation equilibrium constants (KD) and dissociative half-lives (t %) were calculated from the kinetic rate constants as: KD (M)=kd/kₐ and t_{1/2} (min)=In2/(60×kd)

human C5 R885H-mmh [1] = biological target: T2, human C5 R885H-mmh (human, UniProt P01031 19-1676); test: SPR, mAb captured via anti-hFc, 37C
T2 construct: also called human C5 variant R885H
Description: as §1, §2

human C5 R885C-mmh [2] = biological target: T3, human C5 R885C-mmh (human, UniProt P01031 19-1676); test: SPR, mAb captured via anti-hFc, 37C
T3 construct: also called human C5 variant R885C
Description: as §1, §2

human C5 R885H-mmh [3] = biological target: T2, human C5 R885H-mmh; test: SPR, mAb captured via anti-hFc, 25C
Description: as §1, §2

human C5 R885C-mmh [4] = biological target: T3, human C5 R885C-mmh; test: SPR, mAb captured via anti-hFc, 25C
Description: as §1, §2

African green monkey C5 = African green monkey C5 (African green monkey); test: cell-based or functional assay
Cynomolgus monkey C5 = Cynomolgus monkey C5 (cynomolgus monkey, UniProt A0A2K5U1T1 19-1676); test: cell-based or functional assay
human C5 = biological target: T4, human C5 (human, UniProt P01031 19-1676); test: SPR, mAb captured via anti-hFc, dissociation at pH7.4 vs pH6.0, 25C
T4 construct: Bought human C5 (EMD #204888, said elsewhere to be purified from plasma); also called hC5; complement component 5
Description: Effect of pH on the rate of dissociation of recombinant human C5 bound to purified anti-C5 monoclonal antibodies was determined using a real-time surface plasmon resonance biosensor using a Biacore T200 instrument. The Biacore sensor surface was first derivatized by amine coupling with a monoclonal mouse anti-human Fc antibody (GE, # BR-1008-39) to capture anti-C5 monoclonal antibodies expressed with human IgG4 Fc. All Biacore binding studies were performed using two running buffers PBS-T, pH7.4 (0.01M Na₂HPO₄/NaH₂PO₄, 0.15M NaCl, 0.05% v/v Tween-20, adjusted to pH7.4) and PBS-T, pH6.0 (0.01M Na₂HPO₄/NaH₂PO₄, 0.15M NaCl, 0.05% v/v Tween-20, adjusted to pH6.0). […] Binding dissociative half-lives (t %) were calculated from kd as: […]

| Binder | 100 nM monkey C5-mmh Bound (RU) (monkey C5-mmh) | Kd (monkey C5-mmh) [nM] | koff (monkey C5-mmh) [s⁻¹] | kon (monkey C5-mmh) [M⁻¹ s⁻¹] | t1/2 (monkey C5-mmh) [min] | 100 nM Human C5 R885H-mmh Bound (RU) (human C5 R885H-mmh [1]) | Kd (human C5 R885H-mmh [1]) [nM] | koff (human C5 R885H-mmh [1]) [s⁻¹] | kon (human C5 R885H-mmh [1]) [M⁻¹ s⁻¹] | t1/2 (human C5 R885H-mmh [1]) [min] | 100 nM Human C5 R885C-mmh Bound (RU) (human C5 R885C-mmh [2]) | Kd (human C5 R885C-mmh [2]) [nM] | koff (human C5 R885C-mmh [2]) [s⁻¹] | kon (human C5 R885C-mmh [2]) [M⁻¹ s⁻¹] | t1/2 (human C5 R885C-mmh [2]) [min] | 100 nM Human C5 R885H-mmh Bound (RU) (human C5 R885H-mmh [3]) | Kd (human C5 R885H-mmh [3]) [nM] | koff (human C5 R885H-mmh [3]) [s⁻¹] | kon (human C5 R885H-mmh [3]) [M⁻¹ s⁻¹] | t1/2 Ratio pH7.4/pH6.0 (human C5) | other results |
| --- | --- | --- | --- | --- | --- | --- | --- | --- | --- | --- | --- | --- | --- | --- | --- | --- | --- | --- | --- | --- | --- |
| B1 | 13 | 118 | 0.00637 | 54000 | 2 | 36 | 7.43 | 0.000712 | 95800 | 16 | 25 | 19.5 | 0.000997 | 51200 | 12 | 99 | 1.16 | 4.37e-05 | 37700 | – | t1/2 (human C5 R885H-mmh [3]): 264 min; 100 nM Human C5 R885C-mmh Bound (RU) (human C5 R885C-mmh [4]): 80 RU; Kd (human C5 R885C-mmh [4]): 0.737 nM; koff (human C5 R885C-mmh [4]): 2.2e-05 s⁻¹; kon (human C5 R885C-mmh [4]): 29900 M⁻¹ s⁻¹; t1/2 (human C5 R885C-mmh [4]): 525 min |
| B2 | 64 | 14.3 | 0.00361 | 251000 | 3 | 79 | 1.72 | 0.000739 | 429000 | 16 | 75 | 2.24 | 0.000737 | 329000 | 16 | 173 | 0.147 | 7.09e-05 | 484000 | – | t1/2 (human C5 R885H-mmh [3]): 163 min; 100 nM Human C5 R885C-mmh Bound (RU) (human C5 R885C-mmh [4]): 168 RU; Kd (human C5 R885C-mmh [4]): 0.251 nM; koff (human C5 R885C-mmh [4]): 6.99e-05 s⁻¹; kon (human C5 R885C-mmh [4]): 278000 M⁻¹ s⁻¹; t1/2 (human C5 R885C-mmh [4]): 165 min |
| B3 | 47 | 9.6 | 0.00129 | 135000 | 9 | 69 | 3.73 | 0.000958 | 257000 | 12 | 55 | 7.32 | 0.00103 | 141000 | 11 | 65 | 1.22 | 0.000217 | 178000 | – | t1/2 (human C5 R885H-mmh [3]): 53 min; 100 nM Human C5 R885C-mmh Bound (RU) (human C5 R885C-mmh [4]): 63 RU; Kd (human C5 R885C-mmh [4]): 2.03 nM; koff (human C5 R885C-mmh [4]): 0.000218 s⁻¹; kon (human C5 R885C-mmh [4]): 107000 M⁻¹ s⁻¹; t1/2 (human C5 R885C-mmh [4]): 53 min |
| B4 | – | – | – | – | – | – | – | – | – | – | – | – | – | – | – | – | – | – | – | – | AGM AP % Max Inhibition, hemolysis assay, 5% serum (African green monkey C5): 44.2%; AGM CP % Max Inhibition, hemolysis assay, 5% serum (African green monkey C5): 81%; AGM Serum AP IC50, hemolysis assay, 5% serum (African green monkey C5): 233 nM; Cyno AP % Max Inhibition, hemolysis assay, 5% serum (Cynomolgus monkey C5): 98.6%; Cyno CP % Max Inhibition, hemolysis assay, 5% serum (Cynomolgus monkey C5): 94.2%; Cyno Serum AP IC50, hemolysis assay, 5% serum (Cynomolgus monkey C5): 8.85 nM; Cyno Serum CP IC50, hemolysis assay, 5% serum (Cynomolgus monkey C5): 20.1 nM |
| B5 | 70 | 20.9 | 0.00313 | 150000 | 4 | – | – | – | – | – | – | – | – | – | – | – | – | – | – | 8.3 | – |
| B6 | 112 | 9.18 | 0.00232 | 253000 | 5 | – | – | – | – | – | – | – | – | – | – | – | – | – | – | 7.8 | – |
| B7 | 83 | 7.56 | 0.00297 | 393000 | 4 | – | – | – | – | – | – | – | – | – | – | – | – | – | – | 9.3 | – |
| B8 | 80 | 8.2 | 0.00183 | 223000 | 6 | – | – | – | – | – | – | – | – | – | – | – | – | – | – | 7.8 | – |
